± gives the uncertainty stated by the source.
Assay: amyloid nucleation score (Sup35N fusion, yeast selection) (log enrichment); library NNK3; higher = more nucleation; inactive = no reads after selection
Summary of the method: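 DiMSum was used to calculate nucleation scores as log enrichment of output over input reads, centred on the mode score of non-aggregating sequences. Sequences with fewer than 100 input reads were not scored. Input and output came from Illumina sequencing of plasmid inserts in psi-negative yeast expressing peptides of 20 random codons fused to Sup35N, induced 24 hours with 100 μM copper sulfate and then grown 7 days at 30°C on medium lacking adenine and uracil.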
With WTVIDYDKTWIYLLASVLYL the amyloid nucleation score was “inactive”.
With NVLVKYVPAALFRSNSLQET the amyloid nucleation score was “inactive”.
For KIYQYPVGRLGNCSGLHVWT, the amyloid nucleation score was “inactive”.
In the case of SIFIFYRYVFWRFMCDAVFS, the amyloid nucleation score is reported as “inactive”.
For YFLDLL, the amyloid nucleation score was “inactive”.
With RLRVFVIGLPGALQIVGSLG the amyloid nucleation score was 0.005 ± 0.98.
In the case of CFPCLWP, the amyloid nucleation score is reported as 1.26 ± 0.12.
SIFIMHGRMKF showed an amyloid nucleation score of 1.47 ± 0.072.
With NRLRV the amyloid nucleation score was “inactive”.
In the case of PDLVNISSSPYRRCGYRWVD, the amyloid nucleation score is reported as “inactive”.
With PAQLHNTVHL the amyloid nucleation score was “inactive”.
For GMADKVDTCLWLMFY, the amyloid nucleation score was “inactive”.
In the case of QRGVLL, the amyloid nucleation score is reported as “inactive”.
In the case of DLLQVLPCVLDSYGARAVRC, the amyloid nucleation score is reported as “inactive”.
For LLLFRKRLMLPRVLQQVPRH, the amyloid nucleation score was “inactive”.
In the case of MLKSTKKSRGLYMVSYTFTG, the amyloid nucleation score is reported as “inactive”.
With EHLPSSHP the amyloid nucleation score was “inactive”.
With EKDMFQNVLLVKAYD the amyloid nucleation score was “inactive”.
With RMIRNDFMITLEWGDSGGYH the amyloid nucleation score was 1.28 ± 0.097.
For PVSLNDIYIIKCANKNYEVI, the amyloid nucleation score was “inactive”.
Substance IFVGVSYVHFRLEH has an amyloid nucleation score of 1.8 ± 0.099.
In the case of FTYAC, the amyloid nucleation score is reported as “inactive”.
For NSKLRLFWRTGMVHSVVDVS, the amyloid nucleation score was “inactive”.
With LNDGWVLIYYSGALSDREI the amyloid nucleation score was “inactive”.
For ISLLTVHTVSVTF, the amyloid nucleation score was “inactive”.
In the case of EFLPKWDMQARDVTTLFGCP, the amyloid nucleation score is reported as “inactive”.
With LLLIFS the amyloid nucleation score was “inactive”.
For RDKKNNRVYFGGYSLGTWSC, the amyloid nucleation score was “inactive”.
With KCRVG the amyloid nucleation score was “inactive”.
With TNIHKTVSMKW the amyloid nucleation score was “inactive”.
With GVQAITGPLSVQDVYRWAKP the amyloid nucleation score was “inactive”.
With NAYCPPSLCVKRLYLFRMTK the amyloid nucleation score was “inactive”.
With RHDVSSGSYGGRSGAGSPAQ the amyloid nucleation score was “inactive”.
With TGLLYFRFDCGSSIIRSRYY the amyloid nucleation score was 0.875 ± 0.1.
For RSFVVESPDKYHPIVMFGTD, the amyloid nucleation score was “inactive”.
For KLWKWNTGNSVVVLGLMSGV, the amyloid nucleation score was “inactive”.
For LSPARQLTLLGDKNPANNIL, the amyloid nucleation score was “inactive”.
In the case of MSVYRYSKAVYARIEFTSRS, the amyloid nucleation score is reported as “inactive”.
For NRYHRIIRDAIRKDYTVCSL, the amyloid nucleation score was “inactive”.
In the case of TRVIRLGGMALSFVFTIISC, the amyloid nucleation score is reported as “inactive”.
In the case of FSREYP, the amyloid nucleation score is reported as “inactive”.
In the case of NVFLMAYRVYACKLRGTGLS, the amyloid nucleation score is reported as “inactive”.
In the case of GLEGLLVLWFQCSFTVAALR, the amyloid nucleation score is reported as “inactive”.
In the case of YLRQIYFPCSTP, the amyloid nucleation score is reported as “inactive”.
In the case of ECRHSEWTEYFPSMRFMQAY, the amyloid nucleation score is reported as “inactive”.
With TGISSNHKFMESIDSYVGTP the amyloid nucleation score was “inactive”.
For SCTLYAHALCPEQISPQFLH, the amyloid nucleation score was “inactive”.
For LVLTSPFRYSIV, the amyloid nucleation score was “inactive”.
For ISLVGFHVKLVFL, the amyloid nucleation score was 2.11 ± 0.09.
With PSSRT the amyloid nucleation score was “inactive”.
With DFDNLFYTTLNSQFPRTRFV the amyloid nucleation score was “inactive”.
Work on RQLSSQREWECATPMRHRLA yielded an amyloid nucleation score of 0.145 ± 0.51.
For QYLWPAKFFQTLYIVGCTTP, the amyloid nucleation score was “inactive”.
In the case of YLSRLIIFLSLPD, the amyloid nucleation score is reported as “inactive”.
Substance VLCHKSKWNMH has an amyloid nucleation score of 0.322 ± 0.26.
With TYYTGQLNVTEVVFLYISGS the amyloid nucleation score was 1.96 ± 0.069.
For YLLVFCSNF, the amyloid nucleation score was 2.29 ± 0.091.
For FVHDFTFEGKSMVVRLNCSA, the amyloid nucleation score was “inactive”.
In the case of SWGPLINLRFQLLARCTPGL, the amyloid nucleation score is reported as “inactive”.
For SCLHSSSFCKR, the amyloid nucleation score was “inactive”.
In the case of IVNLL, the amyloid nucleation score is reported as “inactive”.
With RLPSREIVHCVQNSGRNPVG the amyloid nucleation score was 0.079 ± 0.35.
ALYRSGLNFVIRVGTLLMIW gave an amyloid nucleation score of 1.06 ± 0.12.
With PEGPDLTLILAIKPKLSCRG the amyloid nucleation score was “inactive”.
Work on RWCDA yielded an amyloid nucleation score of -0.041 ± 0.31.
In the case of RRVSSSLIEAYYREQSRFQI, the amyloid nucleation score is reported as “inactive”.
For GFIHWRGAIWVSL, the amyloid nucleation score was -0.65 ± 1.9.
For NMDNHTPG, the amyloid nucleation score was “inactive”.
For NSWIMYRGGKDDDFVVPWAA, the amyloid nucleation score was “inactive”.
In the case of VHYGNGLRWLGSLVYMGGCI, the amyloid nucleation score is reported as “inactive”.
For NMDSAWKCPHPYKSLTIVCF, the amyloid nucleation score was “inactive”.
With NFVVKCICWAYFPHVDGFYF the amyloid nucleation score was “inactive”.
With CKVSAL the amyloid nucleation score was “inactive”.
In the case of DHVLNRPYYDNNLKYYDTWL, the amyloid nucleation score is reported as “inactive”.
For SDLASASFCGH, the amyloid nucleation score was 0.676 ± 0.2.
With FGMLFIWRK the amyloid nucleation score was “inactive”.
In the case of TNRRN, the amyloid nucleation score is reported as “inactive”.
With GPTNGFMSLNNWYQPLDQPV the amyloid nucleation score was “inactive”.
For HKDLRYGWSSS, the amyloid nucleation score was “inactive”.
For YPGTASAG, the amyloid nucleation score was “inactive”.

— the supplement of paper PMC12042874
